Test: yeast display, Sf9 membrane polyspecificity reagent, FACS + sequencing; frameworks hold sequencing errors
Outline: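 A nanobody's polyreactivity label depends on the gate it was sorted from. Yeast display cells were stained with 10% biotinylated, detergent-solubilized Sf9 membrane reagent for 1 hour at 4 °C, enriched on streptavidin microbeads and sorted by FACS. The low and high (top ~1%) gates were set on anti-HA fluorescence for expression and streptavidin fluorescence for reagent binding.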

| Sequence | polyreactivity (PSR sort gate) |
| --- | --- |
| QVQLVESGGGLVQAGGSLRLSCAASGRTFVWNVMGWYRQAPGKEREFVAAISGGSTYYADSVKGRFTISRDNAKNTVYLQMTSLKPEDTAVYYCAADSKLHPRYEYWGQGTQVTVSS | low polyreactivity |
| QVQLVESGGGLVQAGGSLRLSCAASGRTFVYNAMGWYRPAPGKERELVAAIDGGGDRTYYADSVKGRFTISRDNAKNTVYLQMNSLKPEDTAVYYCARDPGDTYYYSYPEGDYWGQGTQVTVSS | low polyreactivity |
| QVQLVESGGGLVQAGGSLRLSCAASGRTFVYNAMGWYRQAPGKERELVAAIDGGGDRTYYADSVKGRFTISRDNAKNTVYLQMNSLKPEDTAVYYCARDPGDTYYYSYPEGDYWGLGTQVTVSS | low polyreactivity |
| QVQLVESGGGLVQAGGSLRLSCAASGRTFVYNAMGWYRQAPGKERELVAAITSGGRTYYADSVKGRFTISRDNAKNTVYLQMNSLKPEDTAVYYCNAGVGARESDYWGQCTQVTVSS | low polyreactivity |
| QVQLVESGGGLVQAGGSLRLSCAASGRTFVYNAMGWYRQAPGKERELVAAITTSGASTYYADSVKGRFTISRDNAKNTVYLQMNSLKPEDTAVYYCNAYSRYSYGRTYGYWGQGTQVTVSS | high polyreactivity |
| QVQLVESGGGLVQAGGSLRLSCAASGRTFVYNAMGWYRQAPGKERELVAGITGSGDSTYYADSVKGRFTISRDNAKNTVYLQMNSLKPEDTAVYYCNQLVEEDYWGQGTQVTVSS | low polyreactivity |
| QVQLVESGGGLVQAGGSLRLSCAASGRTFVYNAMGWYRQAPGNERELVAAITSGGRTYYADSVKGRFTISRDNAKNTVYLQMNSLQPEDTAVYYCAKRFWFNTYAAHPAGFDYWGQGTQVTVSS | low polyreactivity |
| QVQLVESGGGLVQAGGSLRLSCAASGRTFVYNAMGWYRQEPGKERELVAAITWNGGSKYYADSVKGRFTISRDNAKITVYLQMNSLKPEDTAVYYCNRDVRYVGPSGFDYWGQGTQVTVSS | high polyreactivity |
| QVQLVESGGGLVQAGGSLRLSCAASGRTFVYYAMGWYRQAPGKERELVAAITWSGGRTYYADSVKGRFTISRDNAKNTVYLQMNSLKPEDTAVYYCNRDQWPWESGYAYNYWGQGTQVTVSS | low polyreactivity |
| QVQLVESGGGLVQAGGSLRLSCAASGRTFVYYAMGWYRQAPGTERELVAAITFSGGYTYYADSVKGRFTISRDNAKNTVYLQMNSLKPEDTAVYYCAAQYRYSYPLGDYWGQGTQVTVSS | low polyreactivity |
| QVQLVESGGGLVQAGGSLRLSCAASGRTFVYYAMGWYSQAPGKERELVAAISSSGGSTSYADSVNGRFTISRDNAKNTVYLQMNSVKPEDTAVYYCAADVSVSGYYYWGQGTQVTVSS | high polyreactivity |
| QVQLVESGGGLVQAGGSLRLSCAASGRTFVYYAMVWYRQAPGKERELVATISRRGGGTYYADSVKGRFTISRDNAKNTVYLQMNSLKPEDTAVYYCNAKWTSHGTYAEDYWGQGTQVTVSS | high polyreactivity |
| QVQLVESGGGLVQAGGSLRLSCAASGRTFVYYDMGWYRQAPGKERELVASINWSGGSTYYADSVKGRFTISRDNAKNTVYLQMNSLKPEDTAVYYCAKEEITEWGVDSWGQGTQVTVSS | low polyreactivity |
| QVQLVESGGGLVQAGGSLRLSCAASGRTFVYYDMGWYRQAPGKERELVASISSGDSTNYADSVKGRFTISRDNAKNTFYLQMNSLKPEDTAVYYCAAQYSWGHYYTFDYWGLGTQVTVSS | low polyreactivity |
| QVQLVESGGGLVQAGGSLRLSCAASGRTFWDNAMGWYRQAPAKERELVAAITFRGGTTYYADSVKGRFTISRDNAKNTVYIQMNSLKPEDTAVYYCAARNGLYRLYYYWGQGTQVTVSS | high polyreactivity |
| QVQLVESGGGLVQAGGSLRLSCAASGRTFWEHAMGWYRQAPGKERELVAAISGDSGSTYYADSVKGRFTISRDNANNSVYLQMNSLKPEDTAVYYCAGDSDRDDSYPYYYWGQGTQVTVSS | low polyreactivity |

| Sequence | polyreactivity (PSR sort gate) |
| --- | --- |
| QVQLVESGGGLVQAGGSLRLSCAASGRTFWFYAMGWYRQAPGKERELVASITSGGGTNYADSVKGRFTISRDNAKNTVYLQMNRLKPEDTAVYYCAAARKLDATTYYKFDYWGQVTQVTVSS | high polyreactivity |
| QVQLVESGGGLVQAGGSLRLSCAASGRTFWGNAMGWYRQAPGKEREFVAGITQSDGSTYYADSVKGRFTISRDNAKNTVYLQMNSLKPEDTAVYYCAATPYSTQGLRPKFDYWGQGTQVTVSS | low polyreactivity |
| QVQLVESGGGLVQAGGSLRLSCAASGRTFWGYALGWYRQAPGKERELVAAISSGGETTYADSVKGRFTISRDNAKNTVYLQMNSMKPEDTAVYYCAADRWITVYILGADGYDYWGQGTQVTVSS | low polyreactivity |
| QVQLVESGGGLVQAGGSLRLSCAASGRTFWGYAMGWYRQAPGKERELVAAISWSGTSTYYADSVKGRFTISRDNAKNTVYLQMNSLKPEDTAVYYCARAVNDWRRKYNYWGQGTQVTVSS | high polyreactivity |
| QVQLVESGGGLVQAGGSLRLSCAASGRTFWKYVMGWYRQAPGKERELVAVISRPAGSTYYADSVKGRFTISRDNAKNSVYLQMNSLKPEDTAVYYCAKRPKNKPVLGDYDHWGQGTQVTVSS | low polyreactivity |
| QVQLVESGGGLVQAGGSLRLSCAASGRTFWRNAMGWYRQAPGKERELVAAINSGGRTYYADSVKGRFTISRDNAKNTVYLQMNSLKPEDTAVYYCAAVYSQSTKRYELYYWGQGTQVTVSS | high polyreactivity |
| QVQLVESGGGLVQAGGSLRLSCAASGRTFWRYAMGWYRQAPGKERELVAAITSGGGSTYYADSVKGRFTISRDNAKNTVSLQMNSLKPEDTAVYYCNRAGRGRSFKGDYWGQGTQVTVSS | high polyreactivity |
| QVQLVESGGGLVQAGGSLRLSCAASGRTFWRYAMGWYRQAPGKEREVVAAISRRGDSTYYADSVKGRFTISRDYAKNTVYLQMNSLKPEDTAVYYCNKGYAYSHDDPYWYSPRYDYWGQGTQVTVSS | low polyreactivity |
| QVQLVESGGGLVQAGGSLRLSCAASGRTFWRYAMGWYRQAPWKERELVARISWRGGSTNYADSVKGRFTISRDNAKNTVYLQMNSLKPEDTAVYYFNAEVLNYLVFGYQLGYDYWGQGTQVTVSS | low polyreactivity |
| QVQLVESGGGLVQAGGSLRLSCAASGRTFWSNAMGWYRQAPGKERELVAAISTGAGSTYYADSVKGRFTISRDNAKNTVYLQMNSLKPEDTAVYYCAAVYNGALYTYYYWGQGTQVTVSS | high polyreactivity |
| QVQLVESGGGLVQAGGSLRLSCAASGRTFWSNAMGWYRQAPGKERELVATISSGGGNTYYADSVKGRFTISRDNAKNTVYLQMNSLKPEDTAVYYCAATKYRWTYAASFGYWGQGTQVTVSS | high polyreactivity |
| QVQLVESGGGLVQAGGSLRLSCAASGRTFWTKAMGWYRQAPGKEREFVAAISWRGASTFYADSVKGRFTISRDNAKNTVYLQMNSLKPEDTAVYYCAAESYIGKYGSYDYWGQGTQVTVSS | low polyreactivity |
| QVQLVESGGGLVQAGGSLRLSCAASGRTFWTNAMGWYRQAPGKEREFVAGISQSGGSTYYADSVKGRFTISRDNAKNTVYLQMNSLKPEDTAVYYCATVKAYRRNYYYWGQGTQVTVSS | high polyreactivity |
| QVQLVESGGGLVQAGGSLRLSCAASGRTFWVNAMGWYRQAPGKERELVAGITFRGGSTYYADSVKGRFTISRDNAKNTVYLQMYSLKPEDTAVYYCAADVTFVYSGRRVHYFYWGQGTQVTVSS | high polyreactivity |
| QVQLVESGGGLVQAGGSLRLSCAASGRTFWVYAMGWYRQAPGKERELVAAIRRGGITNYADSVKGRFTISRDNAKNTVYLQMNSLKPEDTAVYSCATDNYGYLTRYYYWGQGTQVTVSS | low polyreactivity |

From the nanobody polyreactivity screen of Harvey et al. (2022)
